The numbers were not newly measured in PMC8805269, which cites them from elsewhere.

In this series the target is Swi6 CSD (Schizosaccharomyces pombe) (UniProt P40381).

Turning to Swi6 CSD (from UniProt P40381), the Kd was less than 17 nM.
